Test results from US20230265151A1, “GIP/GLP1 CO-AGONIST COMPOUNDS” (priority 2020, published 2023).
Where a chain is given by its changes, count along the chain named.

Legend:
[1] = biological target: human glucagon receptor (human, UniProt P47871 26-477); assay: cell-based or functional assay
[2] = biological target: T1, human glucagon receptor (human, UniProt P47871 26-477); assay: SPA competition vs [125I]-Gcg, hGcgR membranes
T1 construct: whole, on cells; also called hGCGR; hGcgR
Procedure: The binding buffer contains 25 mM 4-(2-hydroxyethyl)-1-piperazineethanesulfonic acid (HEPES), pH 7.4, 2.5 mM CaCl₂, 1 mM MgCh, 0.1% (w/v) bacitracin (Research Products), 0.003% (w/v) Polyoxyethylenesorbitan monolaurate (TWEEN®-20), and Roche Complete™ Protease Inhibitors without EDTA. […] Plates are sealed and mixed on a plate shaker (setting 6) for 1 minute and read with a PerkinElmer Trilux MicroBeta® scintillation counter after 12 hours of incubation/settling time at room temperature.
Data are analyzed using four-parameter (curve maximum, curve minimum, IC₅₀, Hill slope) nonlinear regression routines (Genedata Screener, version 12.0.4, Genedata AG, Basal, Switzerland). […] Values for Kᵢ are reported as the geometric mean, with error expressed as the standard error of the mean (SEM) and n is equal to the number of independent replicates (determined in assays performed on different days).
T1 sequence (P47871 26-477): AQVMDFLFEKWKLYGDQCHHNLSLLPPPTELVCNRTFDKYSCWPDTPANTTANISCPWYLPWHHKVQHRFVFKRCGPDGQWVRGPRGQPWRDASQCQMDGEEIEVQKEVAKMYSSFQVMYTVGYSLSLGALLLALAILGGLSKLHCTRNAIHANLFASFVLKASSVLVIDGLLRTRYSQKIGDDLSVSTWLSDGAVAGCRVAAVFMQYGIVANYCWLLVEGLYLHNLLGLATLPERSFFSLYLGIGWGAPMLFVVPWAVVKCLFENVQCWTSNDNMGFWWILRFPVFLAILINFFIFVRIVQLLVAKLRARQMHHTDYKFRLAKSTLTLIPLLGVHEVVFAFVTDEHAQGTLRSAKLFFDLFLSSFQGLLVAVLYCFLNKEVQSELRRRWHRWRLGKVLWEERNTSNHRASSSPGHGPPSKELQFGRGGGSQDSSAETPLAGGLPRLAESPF

B1: Y-Aib-EGT-αMeF(2F)-TSD-4Pal-SI-αMeL-LD-Orn-K((2-[2-(2-Amino-ethoxy)-ethoxy]-acetyl)2-(γ-Glu)-(4-(4-tert-butylphenyl)butanoyl))AQ-Aib-EFI-(D-Glu)-αMeY-LIK((2-[2- … (peptide)
peptide: YXEGTXTSDXSIXLDXKAQXEFIXXLIKGGPSSGAPPPS
modifications: Aib2, αMeF(2F)6, 4Pal10, αMeL13, Orn16, Aib20, D-Glu24, αMeY25; acylated K17, K28 (groups as in name); C-terminal amide
cAMP EC50 (1.0% HSA) [1]: > 9.95 µM

B2: Y-Aib-EGT-αMeF(2F)-TSD-4Pal-SI-αMeL-LD-Orn-K((2-[2-(2-Amino-ethoxy)-ethoxy]-acetyl)-(γ-Glu)-CO-(CH2)12-CO2H)AQ-Aib-EFIK((2-[2-(2-Amino-ethoxy)-ethoxy]-acetyl)-( … (peptide)
peptide: B1 peptide with X24K, K28E
modifications: Aib2, αMeF(2F)6, 4Pal10, αMeL13, Orn16, Aib20, αMeY25; acylated K17, K24 (groups as in name); C-terminal amide
cAMP EC50 (1.0% HSA) [1]: > 9.95 µM

B3: Y-Aib-EGT-αMeF(2F)-TSD-4Pal-SI-αMeL-LD-Orn-K((εK)-(γ-Glu)-CO-(CH2)12-CO2H)AQ-Aib-EFI-(D-Glu)-αMeY-LIEGGK((εK)-(γ-Glu)-CO-(CH2)12-CO2H)SSGAPPPS-NH2 (peptide)
peptide: B1 peptide with K28E, P31K
modifications: Aib2, αMeF(2F)6, 4Pal10, αMeL13, Orn16, Aib20, D-Glu24, αMeY25; acylated K17, K31 (groups as in name); C-terminal amide
cAMP EC50 (1.0% HSA) [1]: > 9.95 µM

B4: Y-Aib-EGT-αMeF(2F)-TSD-4Pal-SI-αMeL-LD-Orn-K((2-[2-(2-Amino-ethoxy)-ethoxy]-acetyl)3-(γ-Glu)-CO-(CH2)14-CH3)AQ-Aib-EFI-(D-Glu)-αMeY-LIEGGK((2-[2-(2-Amino-ethoxy … (peptide)
peptide: B1 peptide with K28E, P31K
modifications: Aib2, αMeF(2F)6, 4Pal10, αMeL13, Orn16, Aib20, D-Glu24, αMeY25; acylated K17, K31 (groups as in name); C-terminal amide
cAMP EC50 (1.0% HSA) [1]: > 9.95 µM

B5: Y-Aib-EGT-αMeF(2F)-TSD-4Pal-SI-αMeL-LD-Orn-K((2-[2-(2-Amino-ethoxy)-ethoxy]-acetyl)3-(γ-Glu)-CO-(CH2)12-CO2H)AQ-Aib-EFI-(D-Glu)-αMeY-LIEGGK((2-[2-(2-Amino-ethox … (peptide)
peptide: B1 peptide with K28E, P31K
modifications: Aib2, αMeF(2F)6, 4Pal10, αMeL13, Orn16, Aib20, D-Glu24, αMeY25; acylated K17, K31 (groups as in name); C-terminal amide
cAMP EC50 (1.0% HSA) [1]: > 9.95 µM

B6: Y-Aib-EGT-αMeF(2F)-TSD-4Pal-SI-αMeL-LD-Orn-K((2-[2-(2-Amino-ethoxy)-ethoxy]-acetyl)2-(γ-Glu)-(4-(4-tert-butylphenyl)butanoyl))AQ-Aib-EFI-(D-Glu)-αMeY-LIEGGK((2- … (peptide)
peptide: B1 peptide with K28E, P31K
modifications: Aib2, αMeF(2F)6, 4Pal10, αMeL13, Orn16, K17(Z1), Aib20, D-Glu24, αMeY25, K31(Z1), C-term NH2; Z1=AEEA2-(γ-Glu)-(4-(4-tert-butylphenyl)butanoyl)
Ki [2]: 0.637 µM

B7: Y-Aib-EGT-αMeF(2F)-TSD-4Pal-SI-αMeL-LD-Orn-K((2-[2-(2-Amino-ethoxy)-ethoxy]-acetyl)2-(γ-Glu)-(4-(4-tert-butylphenyl)butanoyl))AQ-Aib-K((2-[2-(2-Amino-ethoxy)-et … (peptide)
peptide: B1 peptide with E21K, K28E
modifications: Aib2, αMeF(2F)6, 4Pal10, αMeL13, Orn16, Aib20, D-Glu24, αMeY25; acylated K17, K21 (groups as in name); C-terminal amide
cAMP EC50 (1.0% HSA) [1]: > 9.95 µM

B8: Y-Aib-EGT-αMeF(2F)-TSD-4Pal-SI-αMeL-LD-Orn-K((2-[2-(2-Amino-ethoxy)-ethoxy]-acetyl)-(γ-Glu)-(4-(4-tert-butylphenyl)butanoyl))AQ-Aib-K((2-[2-(2-Amino-ethoxy)-eth … (peptide)
peptide: B1 peptide with E21K, K28E
modifications: Aib2, αMeF(2F)6, 4Pal10, αMeL13, Orn16, Aib20, D-Glu24, αMeY25; acylated K17, K21 (groups as in name); C-terminal amide
cAMP EC50 (1.0% HSA) [1]: > 9.95 µM

B9: Y-Aib-EGT-αMeF(2F)-TSD-4Pal-SI-αMeL-LD-Orn-K((εK)-(2-[2-(2-Amino-ethoxy)-ethoxy]-acetyl)2-(γ-Glu)-CO-(CH2)12-CO2H)AQ-Aib-EFI-(D-Glu)-αMeY-LIEGGK((εK)-(2-[2-(2-A … (peptide)
peptide: B1 peptide with K28E, P31K
modifications: Aib2, αMeF(2F)6, 4Pal10, αMeL13, Orn16, Aib20, D-Glu24, αMeY25; acylated K17, K31 (groups as in name); C-terminal amide
cAMP EC50 (1.0% HSA) [1]: > 9.95 µM

B10: Y-Aib-EGT-αMeF(2F)-TSD-4Pal-SI-αMeL-LD-Orn-K((2-[2-(2-Amino-ethoxy)-ethoxy]-acetyl)2-(γ-Glu)-CO-(CH2)10-CH3)AQ-Aib-K((2-[2-(2-Amino-ethoxy)-ethoxy]-acetyl)2-(γ- … (peptide)
peptide: B1 peptide with E21K, K28E
modifications: Aib2, αMeF(2F)6, 4Pal10, αMeL13, Orn16, Aib20, D-Glu24, αMeY25; acylated K17, K21 (groups as in name); C-terminal amide
cAMP EC50 (1.0% HSA) [1]: > 9.95 µM

B11: Y-Aib-EGT-αMeF(2F)-TSD-4Pal-SI-αMeL-LD-Orn-K((εK)-(2-[2-(2-Amino-ethoxy)-ethoxy]-acetyl)-(γ-Glu)-CO-(CH2)12-CO2H)AQ-Aib-EFI-(D-Glu)-αMeY-LIEGGK((εK)-(2-[2-(2-Am … (peptide)
peptide: B1 peptide with K28E, P31K
modifications: Aib2, αMeF(2F)6, 4Pal10, αMeL13, Orn16, Aib20, D-Glu24, αMeY25; acylated K17, K31 (groups as in name); C-terminal amide
cAMP EC50 (1.0% HSA) [1]: > 9.95 µM

B12: Y-Aib-EGT-αMeF-TSD-4Pal-SI-αMeL-LD-Orn-K((2-[2-(2-Amino-ethoxy)-ethoxy]-acetyl)2-(γ-Glu)-CO-(CH2)12-CO2H)AQ-Aib-EFI-(D-Glu)-αMeY-LIEGGK((2-[2-(2-Amino-ethoxy)-e … (peptide)
peptide: B1 peptide with K28E, P31K
modifications: Aib2, αMeF6, 4Pal10, αMeL13, Orn16, Aib20, D-Glu24, αMeY25; acylated K17, K31 (groups as in name); C-terminal amide
cAMP EC50 (1.0% HSA) [1]: > 9.95 µM
